Consider 3 molecules from patent publication US20140037624A1 (Genentech, published 2014).

The target of experiment [1] is T1, cynomolgus FGFR4-Fc chimeric protein (cynomolgus monkey).
T1 construct: also called cFGFR4
In words: solid phase binding assay, LD1 on immobilized cFGFR4-Fc, OD 450 nm.

Experiment [2] deals with human FGFR4-FGFR1 chimeric construct on BaF3 cells (human, UniProt P11362 398-820, limits assumed). In words: cell-based or functional assay.
Experiment [3] has as its target T2, cynomolgus monkey FGFR4 (SPR of FIG. 2B, construct not stated) (cynomolgus monkey).
T2 construct: also called cynomolgus FGFR4
Briefly: surface plasmon resonance (table row 'Cynomolgus', column 'Kd (nM)'). Background: Surface plasmon resonance follows binding to a sensor surface in real time, without labels.

For experiment [4], the target named is T3, mouse complement C3 (ca. 37 kDa fragment, C3d, from mouse plasma) (mouse, UniProt P01027 1002-1303, limits assumed).
T3 construct: Native protein of plasma/serum, pulled down as a ca. 37 kDa band; also called mouse C3; mouse C3d
T3 sequence (P01027 1002-1303 limits assumed): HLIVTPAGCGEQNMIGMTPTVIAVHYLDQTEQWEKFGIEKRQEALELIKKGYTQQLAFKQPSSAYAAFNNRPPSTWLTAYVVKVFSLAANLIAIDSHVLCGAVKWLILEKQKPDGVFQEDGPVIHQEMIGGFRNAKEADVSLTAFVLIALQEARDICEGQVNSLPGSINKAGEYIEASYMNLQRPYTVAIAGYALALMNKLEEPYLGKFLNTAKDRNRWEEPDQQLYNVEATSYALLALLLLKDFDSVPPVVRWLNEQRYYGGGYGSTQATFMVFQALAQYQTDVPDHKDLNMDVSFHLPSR
Briefly: immunoprecipitation from NCR nude mouse plasma, SDS-PAGE.

The target of experiment [5] is T4, human FGFR4 (recombinant, construct not stated; SPR, FGFR4 ELISA, receptor-binding assay) (human, UniProt P22455 22-369, limits assumed).
T4 construct: Whole exemplary entry named
T4 sequence: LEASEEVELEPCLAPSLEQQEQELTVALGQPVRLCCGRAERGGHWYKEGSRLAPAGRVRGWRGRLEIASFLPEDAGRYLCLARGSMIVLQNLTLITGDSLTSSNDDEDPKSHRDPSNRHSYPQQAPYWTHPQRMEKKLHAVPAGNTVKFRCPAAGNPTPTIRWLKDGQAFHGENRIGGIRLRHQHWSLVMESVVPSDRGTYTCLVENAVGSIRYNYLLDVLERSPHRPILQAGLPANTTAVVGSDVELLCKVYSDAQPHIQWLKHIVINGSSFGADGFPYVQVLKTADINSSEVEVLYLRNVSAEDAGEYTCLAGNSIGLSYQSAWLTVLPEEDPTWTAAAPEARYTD
In words: SPR (BIAcore-2000), antibody immobilized, human FGFR4 as analyte. As to the method: (§1) Affinity determinations were performed by surface plasmon resonance using a BIAcore™-2000. Approximately 50 RU of hLD1.vB IgG was immobilized in 10 mM Sodium Acetate pH 4.8 on a CM5 sensor chip and serial 2-fold dilutions of the FGFR4 (0.48-1000 nM) in PBST were injected at a flow rate of 30 μl/min. Each sample was analyzed with 4-minute association and 10-minute dissociation. After each injection the chip was regenerated using 10 mM glycine pH 1.7. Binding response was corrected by subtracting the RU from a flow cell with an irrelevant IgG immobilized at similar density. A 1:1 Languir model of simultaneous fitting of kon and koff was used for kinetics analysis.
TABLE 3 Binding Kinetics of anti-FGFR4 antibody variants. The association and dissociation rates of human FGFR4 binding to immobilized antibody variants were measured using surface plasmon resonance.

Experiment [6] addresses T4, human FGFR4 (recombinant, construct not …). Briefly: surface plasmon resonance, compared with chLD1. On the procedure:
as §1
As a first step in the humanization of LD1, the variable light and heavy domains of chLD1 were aligned with the human kappa I (huKI) and human VH subgroup III (huIII) variable domain frameworks used in trastuzumab (FIG. 10). Hypervariable regions from chLD1 were grafted into these human variable frameworks to generate a direct CDR-graft (hLD1.vA)^{15, 16}. […] Substitution of mouse sequence at various vernier positions in both the variable light and heavy domains was explored as a means to improve binding and led to the identification of three important mouse vernier positions in the LC: P44F, L46I and Y49S.

Experiment [7] has the same target. In words: FGFR4 ELISA (immobilized FGFR4), O.D. 450 nm against IgG concentration.

B1: chimeric LD1 (murine LD1 variable domains with human kappa and human IgG1 constant domains) (antibody, V domains shown)
VH: EVQLQQPGAVLVRPGTSVKLSCKASGYTFTNHWMNWVKQRPGQGLEWIGMIHPSDSETTLDQKFKDKATLTVDKSSSTAYMQLNRPTSEDSAVYYCTRGDISLFDYWGQGTTVTVSS
VL: DIQMTQTTSSLSASLGDRVTITCRTSQDISNFLNWYQQKPDGTFKILISYTSRLHSGVPSRFSGSGSGTDYSLTISTLEQEDFATYFCQQGNALPYTFGGGTKLEIE
notes: also called chLD1; ChLD1
B1: the EC50 (read off the curve) – broadly, the midpoint of the concentration-response curve – in experiment [1] is around 0.04 µg/mL. Besides, the “IC50 of inhibition of proliferation of BaF3/FGFR4/R1 cells in the presence of 5 nM FGF1” value in experiment [2] turned out to be 17400 pM. Further, the Kd – broadly, a measure of binding affinity in units of concentration – in experiment [3] is 800 pM. For the same molecule, the binding result in experiment [4] is “no binding”.

B2: hLD1.vB (humanized LD1 with light chain P44F, L46I, Y49S) (antibody, V domains shown)
VH: EVQLVESGGGLVQPGGSLRLSCAASGYTFTNHWMNWVRQAPGKGLEWVGMIHPSDSETTLDQKFKDRFTISADTSKNTAYLQMNSLRAEDTAVYYCTRGDISLFDYWGQGTLVTVSS
VL: DIQMTQSPSSLSASVGDRVTITCRTSQDISNFLNWYQQKPGKAFKILISYTSRLHSGVPSRFSGSGSGTDFTLTISSLQPEDFATYYCQQGNALPYTFGQGTKVEIK
With B2, in experiment [5], the equilibrium dissociation constant (Kd) was 970 pM and the koff (commonly the first-order rate constant of dissociation) amounted to 0.00028 s⁻¹. For the same molecule, the “fold weaker binding against chLD1” value in experiment [6] is around 2 fold. In addition, in experiment [7], the “EC50 (read off the curve)” value is around 4 µg/mL.

B3: hLD1.v22 (humanized and affinity matured LD1) (antibody, V domains shown)
VH: EVQLVESGGGLVQPGGSLRLSCAASGYTFTNHWMNWVRQAPGKGLEWVGMILPVDSETTLEQKFKDRFTISADTSKNTAYLQMNSLRAEDTAVYYCTRGDISLFDYWGQGTLVTVSS
VL: DIQMTQSPSSLSASVGDRVTITCRTSQDISNFLNWYQQKPGKAFKILISYTSRLHSGVPSRFSGSGSGTDFTLTISSLQPEDFATYYCQQGNALPYTFGQGTKVEIKR
For B3, in experiment [5], the Kd turned out to be 43 pM and the koff was determined as 3.9e-05 s⁻¹. Besides, in experiment [4], the binding result is recorded as “no binding”.
